Results on 5 molecules are retold here after article PMC8037251, “Molecular Characterization of the Extracellular Domain of Human Junctional Adhesion Proteins” (International Journal of Molecular Sciences, 2021).

The chains are these.
B1: MBP-fused extracellular domain of human JAM-A (Gly27-Arg228) (domain or fragment, UniProt Q9Y624 27-228, looked up)
chain: GSVTVHSSEPEVRIPENNPVKLSCAYSGFSSPRVEWKFDQGDTTRLVCYNNKITASYEDRVTFLPTGITFKSVTREDTGTYTCMVSEEGGNSYGEVKVKLIVLVPPSKPTVNIPSSATIGNRAVLTCSEQDGSPPSEYTWFKDGIVMPTNPKSTRAFSNSSYVLNPTTGELVFDPLSASDTGEYSCEARNGYGTPMTSNAVR
notes: JAM-A, human, extracellular domain, Gly27-Arg228 of Q9Y624; No protease site between MBP and the target in the final design (pET28a-MBP, NdeI/XhoI); also called junctional adhesion molecule A; source: E. coli SHuffle T7 Express, purified (amylose resin, size exclusion chromatography); not shown: MBP, N-terminal, kept
B2: MBP-fused extracellular domain of human JAM4 (Gly34-Arg286) (domain or fragment, UniProt Q9NSI5 34-286, looked up)
chain: GSGSGNEVIEGPQNARVLKGSQARFNCTVSQGWKLIMWALSDMVVLSVRPMEPIITNDRFTSQRYDQGGNFTSEMIIHNVEPSDSGNIRCSLQNSRLHGSAYLTVQVMGELFIPSVNLVVAENEPCEVTCLPSHWTRLPDISWELGLLVSHSSYYFVPEPSDLQSAVSILALTPQSNGTLTCVATWKSLKARKSATVNLTVIRCPQDTGGGINIPGVLSSLPSLGFSLPTWGKVGLGLAGTMLLTPTCTLTIR
notes: JAM4, human, extracellular domain, Gly34-Arg286 of Q9NSI5; No protease site between MBP and the target in the final design; Decamer by size exclusion; source: E. coli SHuffle T7 Express, purified (amylose resin, size exclusion chromatography); not shown: MBP, N-terminal, kept
B3: MBP-fused extracellular domain of human JAM-B (Gly28-Ser238) (domain or fragment, UniProt P57087 28-238, looked up)
chain: GFSAPKDQQVVTAVEYQEAILACKTPKKTVSSRLEWKKLGRSVSFVYYQQTLQGDFKNRAEMIDFNIRIKNVTRSDAGKYRCEVSAPSEQGQNLEEDTVTLEVLVAPAVPSCEVPSSALSGTVVELRCQDKEGNPAPEYTWFKDGIRLLENPRLGSQSTNSSYTMNTKTGTLQFNTVSKLDTGEYSCEARNSVGYRRCPGKRMQVDDLNIS
notes: JAM-B, human, extracellular domain, Gly28-Ser238 of P57087; No protease site between MBP and the target in the final design; Octamer by size exclusion; also called junctional adhesion molecule B; source: E. coli SHuffle T7 Express, purified (amylose resin, size exclusion chromatography); not shown: MBP, N-terminal, kept

Data set [1] concerns the molecule itself. As to the kind of experiment: SEC; ENrich SEC 650 10 x 300 column, PBS as running buffer; peak positions compared with BioRad size exclusion standards; oligomeric state of the MBP fusion. Background: SEC sorts molecules by how far they enter the pores of the column.
Data set [2] deals with B3. As to the kind of experiment: SPR; OpenSPR (Nicoya), ligand protein (0.100 mg) amine-coupled to a Carboxy sensor chip; 1 M sodium caprate injected to disrupt preformed interactions and after each analyte; analyte 12.5-100 ug per 200 uL injection, triplicate; global fit, 1:1 Langmuir model, TraceDraw. To be noted: both partners purified. (In general: SPR reads the build-up and loss of mass on a sensor chip optically.)

The target in data set [3] is B2. The description is as above. As to conditions: both partners purified.
Data set [4] deals with the molecule itself. Described as above.
For data set [5], the target named is B1. As to the kind of experiment: SPR; as the other SPR (OpenSPR, amine-coupled ligand on a Carboxy chip, caprate between injections, 1:1 Langmuir fit) but in the presence of 3 mM CaCl2 (E-CAD experiments). As to conditions: both partners purified.
Data set [6] concerns the molecule itself. Described as above.

One may read the stoichiometry N as the number of molecules, sites or subunits per partner or assembly. Broadly, the Kd is the constant that tells how readily two partners part at equilibrium. Broadly, the koff is a measure of how fast the partners let go of each other. Broadly, the kon is a measure of how fast the partners come together. On to B1, for which the “stoichiometry N” value in data set [1] is 2. Further, in data set [2], the Kd was determined as 2.82 nM, the koff came out at 5.09e-05 s⁻¹ and the kon stood at 16500 M⁻¹ s⁻¹. Besides, in data set [3], the affinity, expressed as Kd, was 2.33 nM; the koff is 4.09e-06 s⁻¹; the kon worked out at 1600 M⁻¹ s⁻¹. In data set [4], this molecule showed a Kd of 76.6 nM, a koff of 0.000838 s⁻¹ and a kon of 13100 M⁻¹ s⁻¹.
Take B2: in data set [1], the “stoichiometry N” value is 10. In data set [4], this molecule returned a Kd of 0.139 nM, a koff of 2.04e-07 s⁻¹ and a kon of 1670 M⁻¹ s⁻¹.
Regarding B3, the “stoichiometry N” value in data set [1] came out at 8. Moreover, in data set [3], the Kd came out at 159 nM, the koff came to 0.000128 s⁻¹ and the kon came out at 1210 M⁻¹ s⁻¹. Moreover, in data set [4], the Kd amounted to 9.97 nM, the koff was determined as 5.36e-05 s⁻¹ and the kon came to 4800 M⁻¹ s⁻¹.

B4: MBP-fused extracellular domain of human epithelial cadherin (Val102-Asp312) (domain or fragment)
chain: VIPPISCPENEKGPFPKNLVQIKSNKDKEGKVFYSITGQGADTPPVGVFIIERETGWLKVTEPLDRERIATYTLFSHAVSSNGNAVEDPMEILITVTDQNDNKPEFTQEVFKGSVMEGALPGTSVMEVTATDADDDVNTYNAAIAYTILSQDPELPDKNMFTINRNTGVISVVTTGLDRESFPTYTLVVQAADLQGEGLSTTATAVITVTD
With B4, the “stoichiometry N” value in data set [1] amounted to 2. For the same molecule, in data set [5], the Kd came to 308 nM, the koff stood at 0.000708 s⁻¹ and the kon was found to be 2340 M⁻¹ s⁻¹. Further, in data set [6], the Kd was 197 nM, the koff was 0.000696 s⁻¹ and the kon was determined as 4650 M⁻¹ s⁻¹.

B5: MBP-fused extracellular domain of human JAM-C (Gly30-Glu236) (domain or fragment, UniProt Q9BX67 30-236, looked up)
chain: GAVNLKSSNRTPVVQEFESVELSCIITDSQTSDPRIEWKKIQDEQTTYVFFDNKIQGDLAGRAEILGKTSLKIWNVTRRDSALYRCEVVARNDRKEIDEIVIELTVQVKPVTPVCRVPKAVPVGKMATLHCQESEGHPRPHYSWYRNDVPLPTDSRANPRFRNSSFHLNSETGTLVFTAVHKDDSGQYYCIASNDAGSARCEEQEME
notes: JAM-C, human, extracellular domain, Gly30-Glu236 of Q9BX67; No protease site between MBP and the target in the final design; Tetramer by size exclusion; also called junctional adhesion molecule C; source: E. coli SHuffle T7 Express, purified (amylose resin, size exclusion chromatography); not shown: MBP, N-terminal, kept
Turning to B5, the “stoichiometry N” value in data set [1] turned out to be 4. Besides, in data set [2], the Kd was 0.203 nM, the koff came to 1.76e-05 s⁻¹ and the kon stood at 85400 M⁻¹ s⁻¹. For the same molecule, in data set [3], the dissociation constant Kd turned out to be 0.0925 nM, the koff is 1.96e-07 s⁻¹ and the kon amounted to 2030 M⁻¹ s⁻¹. In data set [4], the Kd was 30.2 nM, the koff is 2.26e-05 s⁻¹ and the kon was 782 M⁻¹ s⁻¹.
